Values quoted from earlier work, collected in PMC3373023.

Tests used:
Asp42 = Asp42 (UniProt position 63, KRGCADNCPKN)
Asp59 = Asp59 (UniProt position 80, VCCSTDKCN--)
Glu17 = Glu17 (UniProt position 38, YKTCPEGKNLC)
His4 = His4 (UniProt position 25, YTLKCHNTQLP)
Asp27 = Asp27 (UniProt position 156, PLCGSDNKTYG)
Asp7 = Asp7 (UniProt position 136, AAVSVDCSEYP)
Glu10 = Glu10 (UniProt position 139, SVDCSEYPKPA)
Glu19 = Glu19 (UniProt position 148, PACTLEYRPLC)
Glu43 = Glu43 (UniProt position 172, CNAVVESNGTL)
His52 = His52 (UniProt position 181, TLTLSHFGKC-)
Lys13 = Lys13 (UniProt position 142, CSEYPKPACTL)
Lys29 = Lys29 (UniProt position 158, CGSDNKTYGNK)
Lys34 = Lys34 (UniProt position 163, KTYGNKCNFCN)
Lys55 = Lys55 (UniProt position 184, LSHFGKC----)
Tyr11 = Tyr11 (UniProt position 140, VDCSEYPKPAC)
Tyr20 = Tyr20 (UniProt position 149, ACTLEYRPLCG)
Tyr31 = Tyr31 (UniProt position 160, SDNKTYGNKCN)

Substance | pKa (Asp42) | pKa (Asp59) | pKa (Glu17) | pKa (His4) | pKa (Asp27) | pKa (Asp7) | pKa (Glu10) | pKa (Glu19) | pKa (Glu43) | pKa (His52) | pKa (Lys13) | pKa (Lys29) | pKa (Lys34) | pKa (Lys55) | pKa (Tyr11) | pKa (Tyr20) | pKa (Tyr31)
Cardiotoxin V (CTX A5, cardiotoxin A5) (Naja naja atra (Naja atra, Taiwan cobra)) | 3.2 | <2.3 | 4.0 | 5.6 | – | – | – | – | – | – | – | – | – | – | – | – | –
Turkey ovomucoid third domain (OMTKY3) (Meleagris gallopavo) | – | – | – | – | ≤2.3 | ≤2.7 | 4.2 | 3.2 | 4.8 | 7.5 | 9.9 | 11.1 | 10.1 | 11.1 | 10.2 | 11.1 | >12.5
